Experimental findings from publication PMC7253548 are described below.

For this data set, the target named is OsHsfB4d (Oryza sativa (rice; cv. Zhonghua 11?), UniProt Q10KX8 1-305). Nature of the data set: EMSA; […], room temperature 20 min, […]; buffer, […]. The note with it: protein: recombinant; tags: 6xHis (pET-28a); chain copies: 3. For orientation: In EMSA bound probe runs differently from free probe, usually more slowly.
Chain of OsHsfB4d (Q10KX8 whole entry): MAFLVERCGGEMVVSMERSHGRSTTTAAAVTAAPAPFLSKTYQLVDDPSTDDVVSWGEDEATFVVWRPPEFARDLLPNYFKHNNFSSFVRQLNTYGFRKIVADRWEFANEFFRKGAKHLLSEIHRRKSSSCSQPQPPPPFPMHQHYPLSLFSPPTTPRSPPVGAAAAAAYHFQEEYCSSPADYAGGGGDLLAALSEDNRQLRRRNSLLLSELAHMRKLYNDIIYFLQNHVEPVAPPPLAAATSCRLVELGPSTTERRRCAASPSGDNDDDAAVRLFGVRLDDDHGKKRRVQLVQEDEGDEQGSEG

B1: 18.0-HSE (perfect HSE only) (dsDNA)
DNA 1: CTTGGAATAAGCTTCTAGAAACTTCCAGTTTG
DNA 2: CAAACTGGAAGTTTCTAGAAGCTTATTCCAAG
Regarding B1, the binding result is recorded as “binds”.

B2: 18.0-HSE-mutant (Mu) (dsDNA)
DNA 1: CTTGGAATAAGCTTCTACAAACAATCAGTTTG
DNA 2: CAAACTGATTGTTTGTAGAAGCTTATTCCAAG
For the molecule B2, the binding result is listed as “no binding”.
